Where a SMILES comes first, the peptide text is derived from it. Where no end group is shown, it is not given here. The star is where a group is joined. Biotin = O=C1N[C@H]2[C@H](CS[C@H]2CCCCC(=O)*)N1
Legend:
SHIP = target: T1, SHIP (Rattus norvegicus, UniProt P97573); assay: Cell lysate adsorption to peptides, anti-SHIP immunoblot; type: binding; conditions: RBL-2H3 lysates, peptide on streptavidin beads
T1 construct: RBL-2H3 cells were lysed in NP-40 lysis buffer; endogenous in cells; host or cells: RBL-2H3
T1 sequence (P97573 1-1190): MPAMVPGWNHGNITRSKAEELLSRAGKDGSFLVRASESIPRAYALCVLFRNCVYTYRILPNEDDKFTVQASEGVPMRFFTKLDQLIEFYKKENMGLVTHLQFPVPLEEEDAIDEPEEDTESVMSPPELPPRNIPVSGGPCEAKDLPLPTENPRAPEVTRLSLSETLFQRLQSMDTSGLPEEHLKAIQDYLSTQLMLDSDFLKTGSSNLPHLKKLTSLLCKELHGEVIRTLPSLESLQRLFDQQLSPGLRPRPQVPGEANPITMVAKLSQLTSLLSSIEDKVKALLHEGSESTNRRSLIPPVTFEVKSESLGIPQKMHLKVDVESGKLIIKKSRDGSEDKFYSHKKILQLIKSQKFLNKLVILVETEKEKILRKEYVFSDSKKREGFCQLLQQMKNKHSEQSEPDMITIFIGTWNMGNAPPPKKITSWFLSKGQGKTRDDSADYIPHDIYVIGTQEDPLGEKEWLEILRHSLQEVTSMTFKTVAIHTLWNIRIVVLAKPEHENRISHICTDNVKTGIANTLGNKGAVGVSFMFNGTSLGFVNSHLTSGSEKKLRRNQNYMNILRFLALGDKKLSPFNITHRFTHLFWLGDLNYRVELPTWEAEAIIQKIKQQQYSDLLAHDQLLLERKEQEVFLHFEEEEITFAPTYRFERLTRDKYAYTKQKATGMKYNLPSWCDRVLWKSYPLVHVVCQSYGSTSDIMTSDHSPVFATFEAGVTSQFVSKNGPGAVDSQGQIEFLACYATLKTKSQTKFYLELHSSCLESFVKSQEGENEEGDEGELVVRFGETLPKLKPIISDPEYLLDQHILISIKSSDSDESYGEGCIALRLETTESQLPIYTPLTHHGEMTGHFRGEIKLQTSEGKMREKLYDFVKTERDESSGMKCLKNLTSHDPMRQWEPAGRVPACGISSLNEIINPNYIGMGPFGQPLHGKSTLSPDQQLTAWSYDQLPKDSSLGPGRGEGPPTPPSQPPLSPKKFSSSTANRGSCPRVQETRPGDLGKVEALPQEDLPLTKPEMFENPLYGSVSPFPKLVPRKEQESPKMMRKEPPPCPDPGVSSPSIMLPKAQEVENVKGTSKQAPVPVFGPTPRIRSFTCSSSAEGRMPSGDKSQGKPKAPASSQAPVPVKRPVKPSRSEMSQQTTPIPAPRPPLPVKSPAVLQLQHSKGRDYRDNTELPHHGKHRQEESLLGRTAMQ
Experimental: (§1) Assay for cell lysate adsorption to peptides. RBL-2H3 cells were lysed in NP-40 lysis buffer (1% NP-40, 10 mM Tris-HCl, 150 mM NaCl, 1 mM EDTA, 1 mM PMSF, 10 mM iodoacetamide, 10 mM NaF, 10 mM Na pyrophosphate, 0.4 mM Na vanadate, 10 μg/ml leupeptine, 10 μg/ml aprotinine). Samples were either used directly (whole cell lysates: WCL), or subjected to affinity purification using peptides bound to beads. Biotinylated peptides (5 μg) were coupled to 50 μl streptavidin-agarose bead slurry (Sigma) for 1 hour at 4° C., prior to bead saturation with D-biotin (1 mg/ml) for 1 hour at 4° C. After 3 washes in lysis buffer, samples were separated on SDS-PAGE and transferred to nitrocellulose.
(§2) RBL-2H3 and ^35S-labeled IIA.1.6 cells were lysed in NP-40 lysis buffer (1% NP-40, 10 mM Tris-HCl, 150 mM NaCl, 1 mM EDTA, 1 mM PMSF, 10 mM iodoacetamide, 10 mM NaF, 10 mM Na pyrophosphate, 0.4 mM Na vanadate, 10 μg/ml leupeptin, 10 μg/ml aprotinin). Samples were either used directly (whole cell lysates: WCL), or subjected to affinity purification using peptides bound to beads. Biotinylated peptides (5 μg) were coupled to 50 μl streptavidin-agarose slurry beads for 1 hour at 4° C., prior to bead saturation with D-biotin (1 mg/ml) for 1 hour at 4° C. After 3 washes in lysis buffer, samples were fractionated on 8% SDS-polyacrylamide gel electrophoresis (SDS-PAGE) under reducing condition and transferred to nitrocellulose.
(§3) Results are illustrated by FIG. 15 showing the in vitro interaction between NKG2A ITIMs and SHP-1, SHP-2 and SHIP phosphatases. In FIG. 15, RBL-2H3 cell lysates (15A) or ^35S-labeled ILA.1.6 cell lysates (15B) were absorbed with indicated biotinylated peptides coupled to streptavidin-beads. Affinity-bound proteins (30×10^6 cells/sample) or whole cell lysates (WCL, 5×10^6 cells/sample) were resolved on 8% SDS-PAGE under reducing conditions prior to autoradiography (15B), or immunoblotting using anti-SHIP antiserum, anti-SHP-2 mAb and anti-SHP-1 mAbs (15A).

SHP-2 = target: T2, SHP-2 (Rattus norvegicus, UniProt P41499); assay: Cell lysate adsorption to peptides, anti-SHP-2 immunoblot; type: binding; conditions: RBL-2H3 lysates, peptide on streptavidin beads
T2 construct: RBL-2H3 cells were lysed in NP-40 lysis buffer; endogenous in cells; host or cells: RBL-2H3
T2 sequence (P41499 1-593): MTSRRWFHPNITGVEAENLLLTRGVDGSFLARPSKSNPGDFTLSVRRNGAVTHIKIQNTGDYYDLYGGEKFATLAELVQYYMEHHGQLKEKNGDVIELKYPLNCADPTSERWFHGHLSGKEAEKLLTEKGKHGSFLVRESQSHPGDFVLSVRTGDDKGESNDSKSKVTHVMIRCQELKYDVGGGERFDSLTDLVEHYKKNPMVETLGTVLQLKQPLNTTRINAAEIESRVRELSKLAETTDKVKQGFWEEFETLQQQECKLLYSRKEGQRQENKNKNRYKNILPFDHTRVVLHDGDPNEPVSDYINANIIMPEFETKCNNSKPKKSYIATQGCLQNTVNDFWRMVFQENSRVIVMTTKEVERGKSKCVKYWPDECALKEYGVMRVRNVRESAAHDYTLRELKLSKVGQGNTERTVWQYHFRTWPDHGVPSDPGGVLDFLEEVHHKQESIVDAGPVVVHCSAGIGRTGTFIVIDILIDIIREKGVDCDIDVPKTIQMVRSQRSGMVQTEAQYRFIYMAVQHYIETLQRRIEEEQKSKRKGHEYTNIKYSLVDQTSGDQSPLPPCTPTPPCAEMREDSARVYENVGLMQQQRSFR
Experimental: as §1, §2, §3

SHP-1 = target: T3, SHP-1 (Rattus norvegicus, UniProt P81718); assay: Cell lysate adsorption to peptides, anti-SHP-1 immunoblot; type: binding; conditions: RBL-2H3 lysates, peptide on streptavidin beads
T3 construct: endogenous in cells; host or cells: RBL-2H3
T3 sequence (P81718 whole entry): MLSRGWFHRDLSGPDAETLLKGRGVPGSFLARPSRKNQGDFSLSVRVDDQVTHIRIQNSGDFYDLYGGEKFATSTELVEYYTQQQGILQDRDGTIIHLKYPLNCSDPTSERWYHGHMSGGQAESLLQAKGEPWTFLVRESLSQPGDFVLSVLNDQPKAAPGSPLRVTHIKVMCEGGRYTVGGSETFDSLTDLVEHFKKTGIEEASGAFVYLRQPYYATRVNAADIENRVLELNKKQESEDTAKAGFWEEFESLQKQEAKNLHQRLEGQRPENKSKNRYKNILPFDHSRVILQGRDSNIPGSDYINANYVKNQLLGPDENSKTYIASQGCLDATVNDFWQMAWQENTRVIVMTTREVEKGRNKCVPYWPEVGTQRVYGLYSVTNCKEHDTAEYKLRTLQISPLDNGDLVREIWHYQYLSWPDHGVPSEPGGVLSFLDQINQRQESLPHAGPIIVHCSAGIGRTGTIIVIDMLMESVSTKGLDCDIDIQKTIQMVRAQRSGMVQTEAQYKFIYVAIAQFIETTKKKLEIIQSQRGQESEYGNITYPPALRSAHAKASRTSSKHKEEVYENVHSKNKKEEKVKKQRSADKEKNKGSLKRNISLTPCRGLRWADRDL
Experimental: as §1, §2, §3

GST-SHP-1.SH2(N) = target: T4, GST-SHP-1.SH2(N) (Mus musculus, UniProt P29351); assay: Surface plasmon resonance (BIAcore), SHP-1 N-SH2 domain; type: binding, murine
T4 construct: recombinant fusion proteins corresponding to the isolated N- and C-SH2 domains of SHP-1; made in house; host or cells: E. coli DH5α
T4 sequence (P29351 4-100 limits assumed): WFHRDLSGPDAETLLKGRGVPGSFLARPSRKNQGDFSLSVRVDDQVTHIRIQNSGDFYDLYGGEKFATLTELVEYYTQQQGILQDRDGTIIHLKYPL
Experimental: (§4) Fusion proteins and surface plasmon resonance analysis. Surface plasmon resonance (SPR) measurements were performed on a BIAcore™ (Pharmacia). The GST-SHP-1.SH2(NC), GST-SHP-1.SH2(N), GST-SHP-1.SH2(C), GST-SHIP.SH2 fusion proteins generated from the murine phosphatase cDNA, were purified from DH5α lysates. Briefly, overnight culture at 37° C. in LB medium containing 50 μg/ml ampicillin was diluted 1/10 in fresh medium, and incubated until the absorbance at 600 nm reaches 1-2. At that point, IPTG was added (1 mM), and incubation continued for an additional 4 hours at 37° C. After centrifugation, bacteria pellet was resuspended in TENGN buffer (50 mM Tris pH 8, 1 mM EDTA, 10% glycerol, 1% NP40, 1 mM DTT, 1 mM PMSF, 10 μg/ml aprotinin and 10 μg/ml leupeptine). Bacteria were lysed by sonication. After centrifugation, supernatant was incubated with Glutathione-Sepharose 4B beads (Pharmacia) overnight at 4° C. with slow shaking. After 3 washes with 50 mM Tris pH 8, elution of the fusion protein was carried out using 50 mM Tris pH 8 supplemented with 10 mM reduced glutathione. Before their use in BIAcore™ experiments, fusion proteins were dialyzed in HBS buffer (10 mM HEPES, 150 mM NaCl, 3.4 mM EDTA). Protein purity was assessed by 12.5% SDS-PAGE, and Coomassie blue staining. The running buffer used in all BIAcore™ experiments consisted of HBS buffer supplemented with 0.05% surfactant P20. For preparation of microchips coated with phosphorylated peptides, immunopure streptavidine (Sigma) was first immobilized onto CMS-sensorchip. Then, biotinylated peptides were injected, and their binding to streptavidine-coated microchips was assessed using anti-phosphotyrosine 4G10 mAb (UHI).
(§5) The measurement of phosphorylated p58.2 peptide binding to GST-SHP-1.SH2(N) and GST-SHP-1.SH2(C) fusion proteins was at a constant 5 μl/min flow rate. In the representative experiment of which results are reported in the above table I, 130 and 160 RU of respectively p58.2.1 and p58.2.2 peptides were immobilized on microchips. The regeneration was performed using HBS buffer supplemented with 0.03% SDS. Results are expressed as corrected resonance units (CRU) corresponding to the raw RU values subtracted from background RU value due to the injection medium. […] koff and kon were calculated from three independent measurements using the BLAevaluation 2.0 software. Kd was calculated from koff/kon.

GST-SHP-1.SH2(C) = target: T5, GST-SHP-1.SH2(C) (Mus musculus, UniProt P29351); assay: Surface plasmon resonance (BIAcore), SHP-1 C-SH2 domain; type: binding, murine; conditions: phosphorylated peptide immobilized; 5 μl/min
T5 construct: recombinant fusion proteins corresponding to the isolated N- and C-SH2 domains of SHP-1; made in house; host or cells: E. coli DH5α
T5 sequence (P29351 110-213 limits assumed): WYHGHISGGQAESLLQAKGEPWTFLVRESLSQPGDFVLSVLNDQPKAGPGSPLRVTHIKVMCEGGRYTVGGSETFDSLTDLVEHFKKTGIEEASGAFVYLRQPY
Experimental: as §4, §5

[1] = phosphorylated peptide immobilized, 5 μl/min

Compound | binding of SHIP from cell lysates (SHIP) | binding of SHP-2 from cell lysates (SHP-2) | binding of SHP-1 from cell lysates (SHP-1) | Kd (GST-SHP-1.SH2(N)) | koff (GST-SHP-1.SH2(N); [1]) | kon (GST-SHP-1.SH2(N); [1]) | koff (GST-SHP-1.SH2(C)) | kon (GST-SHP-1.SH2(C)) | binding of SHIP from cell lysates (SHIP; listed as FcγRIIB phosphorylated ITIM peptides)
KTEAENTITY262SLLK [nonphosphorylated peptides corresponding to FcγRIIB] | No association | No association | No association | – | – | – | – | – | –
CC[C@H](C)[C@H](NC(=O)[C@H](CC(=O)O)NC(=O)[C@@H](NC(=O)[C@@H]1CCCN1C(=O)[C@@H]1CCCN1C(=O)[C@@H](NC(=O)[C@H](CCCCN)NC(=O)[C@@H]1CCCN1C(=O)[C@H](CCCNC(=N)N)NC(=O)[C@H](CCC(N)=O)NC(=O)[C@H](CO)NC(=O)[C@@H]1CCCN1C(=O)[C@H](CCCNC(=N)N)NC(=O)CCCC[C@@H]1SC[C@@H]2NC(=O)N[C@@H]21)[C@@H](C)O)[C@@H](C)O)C(=O)N[C@H](C(=O)N[C@H](C(=O)N[C@@H](Cc1ccc(OP(=O)(O)O)cc1)C(=O)N[C@H](C(=O)N[C@@H](CCC(=O)O)C(=O)N[C@@H](CC(C)C)C(=O)N1CCC[C@H]1C(=O)N[C@@H](CC(N)=O)C(=O)N[C@@H](C)C(=O)N[C@@H](CCC(=O)O)C(=O)N1CCC[C@H]1C(=O)O)[C@@H](C)O)C(C)C)[C@@H](C)CC [p58.2.2, RP SQ RPKTPPTDIIVY333TELPNAEP] (HELM PEPTIDE1{[O=C1N[C@H]2[C@H](CS[C@H]2CCCCC(=O)[*:2])N1].R.P.S.Q.R.P.K.T.P.P.T.D.I.I.V.[O=C([C@H](Cc1ccc(OP(=O)(O)O)cc1)N[*:1])[*:2]].T.E.L.P.N.A.E.P}$$$$V2.0) | – | – | – | 3.16 µM | 0.025 s⁻¹ | 8000 M⁻¹ s⁻¹ | 0.0003 s⁻¹ | 600 M⁻¹ s⁻¹ | –
KTEAENTITY262SLLK [FcγRIIB ITIM] (Biotin-KTEAENTITYSLLK) [murine FcγRIIB1/B2 ITIM peptide] | recruit | recruit | recruit | – | – | – | – | – | associate
DEQDPQEATY303AQLN (DEQDPQEATYAQLN) [p58.2.1-V301A, point mutant of KIR N-terminal ITIM peptide] | – | abolishes the binding | abolishes the binding | – | – | – | – | – | –
KTEAENTATY262SLLK (KTEAENTATYSLLK) [FcγRIIB 1-I260A, point mutant of FcγRIIB ITIM peptide] | not affected | abolishes the binding | abolishes the binding | – | – | – | – | – | –

Source: US20040038894A1, “Compounds for modulating cell negative regulations and biological applications thereof” (INSTITUT NATIONAL DE LA SANTE ET DE LA RECHERCHE MEDICALE …, priority 1996, published 2004)
